Results from the supplement of paper PMC12764529.
± gives the half width of the 95% confidence interval.

Columns and labels:
[1] = folding stability dG unfold from chymotrypsin proteolysis; higher = more stable
How it was run: (§1)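 Mini-proteins designed to be under 80 residues and free of cysteine were carried in a PA-tagged cDNA display construct and digested with trypsin and with chymotrypsin. Each protease was applied at 11 threefold-diluted concentrations, alongside a no-protease condition, before sequencing. K50 came from Bayesian fitting of the sequencing counts, and unfolding free energy was obtained by comparing it with a sequence-predicted unfolded-state K50 and a shared folded-state K50, for each protease separately or for both together. Designs were retained only if their AlphaFold2 dimer inter-PAE exceeded 15.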

[2] = folding stability dG unfold from trypsin proteolysis; higher = more stable
How it was run: as §1

[3] = folding stability dG unfold (combined trypsin and chymotrypsin); higher = more stable
How it was run: as §1

Sequence	folding stability dG unfold [1] [kcal/mol]	folding stability dG unfold [2] [kcal/mol]	folding stability dG unfold [3] [kcal/mol]
SAGGSLELPEGAKVEVEVEIEEVDDDTVKIKVKVKFTFINEDGEPETFEAEFEFEIPKEEAEELLGSAGGSA [r2_226_TrMRF]	3.66 ± 0.11	1.88 ± 0.17	3.32 ± 0.13
SAGGSAEQTATIESVEYNEETGELTIRIRLENGEEVEITVKPDGTITITLPPGAKITEIEIERLPPSAGGSA [r15_959_TrROS_Hall]	2.3 ± 0.32	1.91 ± 0.15	2.53 ± 0.35
SAGGSAKKKKKKKKKKKKKKEKKEVVIVIKAKSKEEAEKAVKKLLEELQKKYNIPLPKNVKVIILPSAGGSA [r15_496_TrROS_Hall]	4.34 ± 0.24	3.33 ± 0.11	3.65 ± 0.37
SAGGSAGGWIEIDPETGTIEIWMPPNDIEPLVDEIAEELGWKVKVKVEPNPEGWVRHTITIPPKSAGGSAGG [r6_419_TrROS]	0.281 ± 0.35	-0.109 ± 0.087	0.39 ± 0.23
SAGGSAGGSEEELKKLLDNIKEVKVVENENGEKYVVFTVTDKNGKKITIVAKSPEARELAKKLSAGGSAGGS [r12_466_TrROS_Hall]	2.35 ± 0.046	1.45 ± 0.066	1.96 ± 0.11
SVPADAKPGVVPERVVLVIVVPPELLDEDGRLRPENLEIAAGEAAEAARKLREAFPDVPIEDVGVVVVEGSA [r9_943_TrMRF]	0.466 ± 0.029	0.869 ± 0.02	0.705 ± 0.046
SAGGSAGGSAGGKIKPGQTVIFIELKITKQRDGPDGKRYMEFEIERIDIFRIPPGDNILSAGGSAGGSAGGS [r10_826_TrROS]	3.18 ± 0.13	2.55 ± 0.068	3.03 ± 0.13
SAGGSAGGSAKRKVIEVDSLEEIKKAIEEAKEGEVVEIVVRDPETNETYTLKVVDGKIVLIPSAGGSAGGSA [r18_407_TrROS_Hall]	2.664 ± 0.014	1.32 ± 0.039	2.27 ± 0.049
SAGGPWRFEIDDIQPPEDGKVQIRIKLYNDDGEPIQELSIPMKGVDDVKITIPIGNQPIKIPITVVPASAGG [r13_427_TrROS]	0.614 ± 0.22	-0.13 ± 0.27	0.361 ± 0.19
SAGGGKLFVTEDAVLLELLYPETGEPYLAVFNPPTGLVTVYFPNRLKALFKIDPDGNLTLVKIEPANSAGGS [r16_127_TrMRF]	2.979 ± 0.028	2.06 ± 0.093	2.69 ± 0.078
SAGGSAGGSAAMTVSEVSSSPDPSSDYLSFEVRTTETVKVPGTKAPVTTTVTTTPTKVSKLLSAGGSAGGSA [r18_41_JUSTAS]	-0.177 ± 0.25	-0.237 ± 0.12	-0.111 ± 0.12
SAGGSAGMVVEVREFEIEPDEDKKIKATLERYETPEGPRYVLTIEDPSKNEKKSYPLEPGVDFKKLSAGGSA [r15_75_JUSTAS]	0.681 ± 0.14	-0.0245 ± 0.26	0.488 ± 0.2
SAGKVTVERDPSTNVVNVTVEVERERDVPPGAPVTETIIIPARVKFDEDGKLVEPISLDDILAAIRAAGSAG [r5_239_TrMRF]	0.684 ± 0.095	0.221 ± 0.12	0.629 ± 0.21
SAGGSAGGSAGKKKGKKPKKIKVKKIKLIVKDKETNEYYEKEITVNKDGTLTIKVKKLKKSAGGSAGGSAGG [r11_883_TrROS_Hall]	3.07 ± 0.089	1.85 ± 0.083	2.75 ± 0.1
SAAKKLKELGYKVKKVEVLKPFTLPDGTTLTEYRITVELPTKTVTVDIIAPGESPEIAEEAALAAITASSAG [r14_726_TrMRF]	3.157 ± 0.011	1.25 ± 0.016	2.81 ± 0.051
SAGGSAGGAEVVKVDPKPAGVTTVLERYPDGTLRLLKETEENGKLTVSEVETIPVPDISKPPLLSAGGSAGG [r6_836_JUSTAS]	0.164 ± 0.066	-0.198 ± 0.075	0.0779 ± 0.11
SAGGSAGGSEYYIYIQIDKNGKIEIVDVVPPGEPMEDMPPEQYDHTIMFPFESPEDALAEILKSAGGSAGGS [r12_452_TrROS]	0.731 ± 0.022	0.606 ± 0.019	0.719 ± 0.075
SAGGMTEVSVSEELRAEGGGLERVLVVTITTVTKVYPVGSSNKVEYEESTIVIPADDPAALEAAGVLLSAGG [r13_670_JUSTAS]	-0.319 ± 0.36	0.563 ± 0.07	0.257 ± 0.16
SAGGSAGMMKVTTTPVSADTVRVTVTVPGGPFTVTVTQNGVPLLTRTVPADATLTITLPPNATVVGSAGGSA [r15_581_JUSTAS]	1.94 ± 0.078	1.91 ± 0.098	1.94 ± 0.14
SAGEPLGPEKAKELAEELVERVAREIAERLGLAPEEVEVVSVELTPDGRLVLTLRVPEREFTFVFPVEGSAG [r5_565_TrMRF]	4.89 ± 0.054	3.36 ± 0.078	4.62 ± 0.054
SAGGSAGGSAGKRRIYILGMDTVQVAEYLRDTGPDIKVEVFNPGQPMEEFQDNYDIVIFVSAGGSAGGSAGG [r17_225_TrROS]	2.33 ± 0.1	1.59 ± 0.035	2.04 ± 0.16
